Data reported in US20070060521.

How the values were obtained:
[1] = tested on: purified baculovirus-expressed STAT3 (full-length)
[2] = tested on: purified baculovirus-expressed STAT3β

Substance | in vitro phosphorylation of STAT3 (32P-ATP, SDS-PAGE, autoradiography) [1] | in vitro phosphorylation of STAT3b (32P-ATP, SDS-PAGE, autoradiography) [2]
purified ERKs protein kinases (BIOMOL) | STAT3 phosphorylation by ERK, however, is minimal compared to levels achieved for JNK and p38 | STAT3b does not undergo serine phosphorylation by any of the MAPKs
purified JNK protein kinase (BIOMOL) | p38 and JNK can effectively phosphorylate STAT3 in vitro | STAT3b does not undergo serine phosphorylation by any of the MAPKs
purified p38 protein kinase (AG Scientific) | p38 and JNK can effectively phosphorylate STAT3 in vitro | STAT3b does not undergo serine phosphorylation by any of the MAPKs
